Assay results taken from patent US20240075068A1 (GADETA B V, published 2024).
Blank lines part the entries; values can stand above or below the binder they belong to.

How the values were obtained:
[1] = biological target: T1, endothelial protein C receptor (EPCR) on HT-29 cells (UniProt Q9UNN8 18-238, limits assumed); test: flow cytometry on HT-29 cells (wild-type, EPCR-enhanced, EPCR KO), streptavidin-A647 detection
T1 construct: whole, on cells; The description says 'preferably human EPCR'; HT-29 is a human cell line; also called recognised target; target antigen
T1 sequence (looked up): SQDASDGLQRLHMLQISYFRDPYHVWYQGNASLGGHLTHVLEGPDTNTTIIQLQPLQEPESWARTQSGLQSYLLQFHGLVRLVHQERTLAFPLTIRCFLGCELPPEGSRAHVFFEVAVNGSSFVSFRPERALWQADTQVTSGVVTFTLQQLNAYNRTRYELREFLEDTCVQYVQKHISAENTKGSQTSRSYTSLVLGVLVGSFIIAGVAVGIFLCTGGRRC
Procedure: Target cells mock treated with PBS served as control binding (FIG. 15A). […] Mock treated and unstained target cells served as controls. Data was analysed with flowjo and shown as histograms.
(§1) Trypsinized HT-29 target cells seeded in 96-well round bottom-plates were incubated for 2 hours at 37° C. to recover cell surface expression molecules. […] Unbound sTCR/TCR-CD3 bispecific engager was washed. Bound sTCR or TCR-CD3 bispecific engager was stained respectively with streptavidin-labelled A647 (BioLegend, CA, USA) or anti-His-APC (BioLegend). Staining was determined with FACS flow cytometry was results were analyzed with Flowjo software.
The soluble γδTCRs were used to assess specific binding to HT-29 cells, HT-29 knocked out (KO) for the expressed target (EPCR) or HT-29 cells with ectopic target expression. Bound soluble γδTCRs were targeted with a secondary streptavidin A647-labelled antibody that could be detected with FACS flow cytometry.

[2] = biological target: T1, endothelial protein C receptor (EPCR) …; test: flow cytometry on HT-29 cells (wild-type, EPCR ectopic, EPCR KO), anti-His-APC detection
Procedure: PBS-mock treated (secondary only) or unstained target cells served as controls. Data was analysed with flowjo and shown as histograms.
as §1
The γδTCR-CD3 bispecific engagers were used in binding experiments utilizing HT-29 cells, HT-29 with the target antigen (EPCR) knocked out (KO) or with ectopic expression of the target. Bound γδTCR-CD3 bispecific engagers were targeted with an anti-His-APC-labelled secondary antibody that could be detected with FACS flow cytometry.

[3] = biological target: Endothelial protein C receptor (EPCR) peptide on (human); test: TEG library γ-random/δ-random, 16 h with Luc-Tom HT-29 (cells that express the antigen), E:T 1:3; CD69/CD107a sort, NGS read ratio; Fig. 9; full-length, on cells; settings: chains Vgamma:Vdelta

binding result [1]: no binding (tested: 10 µg)
B1: sE57 G2/D1 soluble γδTCR (affinity decreased variant, without cysteine) (TCR, V domains shown)
V domain 1: SSNLEGRTKSVIRQTGSSAEITCDLAEGSTGYIHWYLHQEGKAPQRLLYYDSYTSSVVLESGISPGKYDTYGSTRKNLRMILRNLIENDSGVYYCATWDGYKKLFGSGTTLVVTD
V domain 2: DQQVKQNSPSLSVQEGRISILNCDYTNSMFDYFLWYKKYPAEGPTFLISISSIKDKNEDGRFTVFLNKSAKHLSLHIVPSQPGDSAVYFCAASSPIRGYTSGSDKLIFGKGTRVTVEP
modifications: biotinylated via Avi-tag (BirA co-transfection in the presence of biotin)
notes: also called G2/D1 variant

binding result [2]: no binding (tested: 5 µg)
B2: soluble γδTCR-CD3 bispecific engager comprising the G2/D1 variant regions (TCR, V domains shown)
V domain 1: SSNLEGRTKSVIRQTGSSAEITCDLAEGSTGYIHWYLHQEGKAPQRLLYYDSYTSSVVLESGISPGKYDTYGSTRKNLRMILRNLIENDSGVYYCATWDGYKKLFGSGTTLVVTD
V domain 2: DQQVKQNSPSLSVQEGRISILNCDYTNSMFDYFLWYKKYPAEGPTFLISISSIKDKNEDGRFTVFLNKSAKHLSLHIVPSQPGDSAVYFCAASSPIRGYTSGSDKLIFGKGTRVTVEP
notes: This is a TCR-scFv fusion; also called G2/D1 γδTCR-CD3 bispecific engager; G2D1 γδTCR-CD3 bispecific engager

enrichment of CD69+/CD107a+ over CD69-/CD107a- reads [3]: > 170%
B3: E57 G7/D5 (protein)
chain 1: SSNLEGRTKSVIRQTGSSAEITCDLAEGSTGYIHWYLHQEGKAPQRLLYYDSYTSSVVLESGISPGKYDTYGSTRKNLRMILRNLIENDSGVYYCATWEAFYYKKLFGSGTTLVVT
chain 2: DQQVKQNSPSLSVQEGRISILNCDYTNSMFDYFLWYKKYPAEGPTFLISISSIKDKNEDGRFTVFLNKSAKHLSLHIVPSQPGDSAVYFCAASSPIKGYTGSDKLIFGKGTRVTVEP
